Experiment [1] deals with T1, N-terminal His-tagged Human 4RON tau (human, UniProt P10636-6 1-383). The experiment in a line: ELISA.
The target in experiment [2] is T1, N-terminal His-tagged Human 4RON tau. The experiment in a line: ELISA. This is another data set of the same source.

Where two headings read alike, the source gives them in different places.

B1: Hsp90β (HSP90AB1) (natural protein)
chain: not shown
As to B1, the IC50 in experiment [1] was 3 µM; in experiment [2] it was 59 µM.

These data come from PMC3477299 (ACS chemical biology, 2012).
